Laboratory results taken from publication PMC6662822, “Rational drug-design approach supported with thermodynamic studies — a peptide leader for the efficient bi-substrate inhibitor of protein kinase CK2” (Scientific Reports, 2019).
Where no end group is shown, it is not given here. 7‑COOH‑Br3Bt = not defined here

Biological target: catalytic subunit of human protein kinase CK2 (human) (UniProt P68400)
Sequence (P68400 whole entry): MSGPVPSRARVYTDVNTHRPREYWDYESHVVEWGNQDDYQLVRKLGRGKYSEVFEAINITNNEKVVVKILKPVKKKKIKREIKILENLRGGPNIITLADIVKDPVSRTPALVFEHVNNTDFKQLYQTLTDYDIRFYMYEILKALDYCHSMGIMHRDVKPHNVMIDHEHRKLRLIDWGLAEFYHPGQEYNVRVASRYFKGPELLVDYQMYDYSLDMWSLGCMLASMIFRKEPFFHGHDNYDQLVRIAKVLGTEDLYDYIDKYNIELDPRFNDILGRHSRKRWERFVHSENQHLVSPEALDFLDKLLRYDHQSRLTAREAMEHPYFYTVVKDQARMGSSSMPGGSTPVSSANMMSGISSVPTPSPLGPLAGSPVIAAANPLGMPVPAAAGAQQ

K(7‑COOH‑Br3Bt)ESEEE-NH2 (reading uncertain) [bi-substrate inhibitor (KESEEE-NH2 conjugated with 7-COOH-Br3Bt)]
IC50 of inhibition of hCK2α kinase activity (ADP-Glo assay; 10 μM substrate peptide …, 10 μM ATP, 30 °C): 0.67 µM
